From US20040248767A1 (AUTOGEN RESEARCH, published 2004) come the findings set out here.

The target in experiment [1] is T1, GST alone control protein (UniProt P08515 1-218 = GST).
T1 construct: Negative control; also called GST control protein; control GST alone protein
As to the kind of experiment: SPR (Biacore J), control injected over SAA on CM5 chip. How it is done:
(§1) The 96% pure SAA was covalently bound to the biospecific sensor surface of the Biacore J (biacore, Sweden). This surface consists of a gold-coated glass slide mounted in a plastic holder (the sensor chip). The CM5 chip (biacore, Sweden) was used for all experiments and this chip is covered with a hydrophilic matrix, consisting of carboxymethylated dextran to which the SAA was covalently bound. The tanis protein fragments were injected into the system and flowed across this chip and sensorgrams were recorded in real-time.
(§2) The interaction of the proteins is indicated by the failure of the response to return to the baseline RU value. The difference between the values post injection (points 1, 3, 5, 7) indicates a binding event between full length tanis and SAA. The difference between the injection point and the max RU indicates the affinity between the two proteins. […] These sensorgrams indicate a potentially high affinity binding with a rapid dissociation of the binding event. A series of controls have also been injected across the SAA chip, these were GST alone, BSA (NEB, USA) alone and buffer alone.
Background: Surface plasmon resonance follows binding to a sensor surface in real time, without labels.

In experiment [2] the target is T2, BSA (NEB, USA) (UniProt P02769 25-607).
T2 construct: Negative control
T2 sequence (P02769 25-607 limits assumed): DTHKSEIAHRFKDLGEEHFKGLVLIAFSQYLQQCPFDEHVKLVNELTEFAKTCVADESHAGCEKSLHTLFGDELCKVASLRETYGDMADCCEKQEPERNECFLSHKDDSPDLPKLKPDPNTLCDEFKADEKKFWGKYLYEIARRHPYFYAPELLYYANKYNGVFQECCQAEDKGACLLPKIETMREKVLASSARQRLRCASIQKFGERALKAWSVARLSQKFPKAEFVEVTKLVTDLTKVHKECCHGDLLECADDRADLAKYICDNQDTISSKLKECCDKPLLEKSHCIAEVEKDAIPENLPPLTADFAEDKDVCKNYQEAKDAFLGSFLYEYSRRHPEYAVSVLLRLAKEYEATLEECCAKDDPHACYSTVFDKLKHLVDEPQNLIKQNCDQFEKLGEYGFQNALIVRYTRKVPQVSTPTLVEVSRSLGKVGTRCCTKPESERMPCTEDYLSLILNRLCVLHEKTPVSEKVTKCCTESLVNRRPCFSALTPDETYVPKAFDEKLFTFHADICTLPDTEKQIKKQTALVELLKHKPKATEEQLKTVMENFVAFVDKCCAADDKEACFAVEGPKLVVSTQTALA
Described as above. How it is done:
as §1, §2

T1 sequence (P08515 whole entry): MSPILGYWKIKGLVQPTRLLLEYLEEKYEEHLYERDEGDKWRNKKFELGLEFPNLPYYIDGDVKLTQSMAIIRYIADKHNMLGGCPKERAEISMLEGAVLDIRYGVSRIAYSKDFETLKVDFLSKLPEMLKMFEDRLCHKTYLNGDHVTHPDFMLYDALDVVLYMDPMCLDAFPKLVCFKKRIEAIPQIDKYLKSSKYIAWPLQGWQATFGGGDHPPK

B1: Serum amyloid A (SAA) purified from human sera / human plasma (Trace Scientific) (ligand, UniProt P0DJI8 19-122, looked up)
chain: RSFFSFLGEAFDGARDMWRAYSDMREANYIGSDKYFHARGNYDAAKRGPGGAWAAEVITDARENIQRFFGHGAEDSLADQAANEWGRSGKDPNHFRPAGLPEKY
notes: also called human plasma SAA
Turning to B1, the binding result in experiment [1] and in experiment [2] was “no binding” throughout.
